In patent US6492117, “Zinc finger polypeptides capable of binding DNA quadruplexes” (Gendaq Limited):

Molecular target: glutathione-S-transferase (UniProt P08515 P08515:1-218)
Test: EMSA; GST alone control
Conditions: tags: GST (pGEX-3X, Amersham-Pharmacia); label: 5'-32P; G4, antiparallel intramolecular
Protocol: Binding reactions are performed in a final volume of 10 µl, using 10 fmol of labelled oligonucleotide and various amounts of purified Gq1* in binding buffer: 20 mM Tris-HCl pH 7.5, 1 mM EDTA, 1 mM DTT, 6% glycerol, 100 µg/ml BSA, 1 µg/ml calf thymus DNA, 50 µM ZnCl_2 and KCl to 150 mM. Binding reactions are carried out at room temperature for 1 hour. The samples are loaded on a 8% polyacrylamide (acrylamide:bisacrylamide=33:1) non-denaturing gel. The buffer in the gel and for electrophoresis is 0.5 X TB buffer (Sambrook, J., Fritsch, E. F., & Maniatis, T. (1989) in Molecular Cloning, A Laboratory Manual, Cold Spring Harbor Laboratory Press, Cold Spring Harbor.). Electrophoresis is performed at 15 V/cm, for 2 hours, at 4° C. […] The bands are quantified using Imagequant software. The fraction of DNA that is bound and free is determined after normalization by summing the total number of counts in each lane (Senear D F, Brenowitz M (1991) J Biol Chem Jul 25;266(21):13661–71). To minimise any error due to perturbation of the equilibrium under electrophoretic conditions, the fraction of free DNA is measured at various protein concentrations rather than measuring the amount of complex formed (Cann J R (1989) J Biol Chem Oct 15;264(29):17032–40; Garner M M, Revzin A (1981) Nucleic Acids Res Jul 10;9(13):3047–60). […]

Sequence of glutathione-S-transferase (P08515 whole entry, one chain of several): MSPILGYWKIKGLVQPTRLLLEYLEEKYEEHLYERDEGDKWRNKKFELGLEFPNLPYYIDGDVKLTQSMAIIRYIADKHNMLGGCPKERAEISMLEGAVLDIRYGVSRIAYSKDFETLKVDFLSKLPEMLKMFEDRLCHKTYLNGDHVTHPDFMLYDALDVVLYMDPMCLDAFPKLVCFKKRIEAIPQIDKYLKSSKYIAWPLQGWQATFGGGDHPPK

B1: Htelo (structured_DNA)
DNA: GGTTAGGGTTAGGGTTAGGGTTAGGGTTAG
- binding result: no binding
